Assay results as given in patent US20090010876A1, “VISFATIN AND USES THEREOF” (THE TRUSTEES OF COLUMBIA UNIVERSITY IN THE CITY OF NEW YORK, priority 2007, published 2009).

Columns and labels:
[1] = tested on: macrophages in mouse peritoneal cavity; assay: Acute UPR induction in mouse peritoneal macrophages in vivo, CHOP immunoblot; design: species or system Male C57/B6 mice; settings: i.v. 5 mg recombinant visfatin, 24 h later i.p. 25 μg tunicamycin, harvest 12 h after, CHOP normalized against phospho-eIf2α
Description: FIG. 5. […] FIG. 5A. Male C57/B6 mice were subjected to intra-peritoneal (i.p.) injection of 1 ml of 4% thioglycolate to elicit peritoneal macrophages. Three days later, the mice were injected i.v. with 0.1 ml sterile saline ±5 mg recombinant visfatin (vis). Twenty-four hours later, these mice were injected i.p. with 0.5 ml 150 mM dextrose ±25 μg tunicamycin (TN). Twelve hours after TN injection, macrophages were harvested by peritoneal lavage and immediately lysed in RIPA buffer. The lysates were subjected to SDS-PAGE and immunoblotting for CHOP, phospho-eIf2α and β-actin. FIG. 5B. The intensity of CHOP bands were quantified and normalized against that of phospho-eIf2α.

insulin receptor = assay: CHOP immunoblot in macrophages from insulin receptor deficient and wild type mice; assay type: cell-based; settings: IR−/− vs wt macrophages, ±100 ng/ml visfatin 24 h, then 5 μg/ml tunicamycin 5 h
From the text: FIG. 4. […] Whole cell lysates were immunoblotted for CHOP and β-actin.

[2] = tested on: ER stress related disease; assay: ER-stress related disease in susceptible mice; assay type: in vivo; settings: vs diluent alone; mice susceptible to an ER-stress related disease
[3] = tested on: macrophages in atherosclerotic plaques; assay: Macrophage death in atherosclerotic plaques of susceptible mice; assay type: in vivo; settings: vs diluent alone; mice with reduced ApoE1 expression, high cholesterol diet
From the text: (§1) Recombinant visfatin polypeptides will be injected into mice susceptible to atherosclerotic plaque formation. In accordance with this prophetic example, the genome of these mice can comprise a transgenic modification wherein ApoE1 gene expression is reduced to levels that promote atherosclerosis. The mice will be continuously fed a high cholesterol diet to promote the formation of atherosclerotic lesions. One group of mice will be administered a pharmaceutically effective amount of visfatin polypeptide in a suitable diluent and another group of mice will be administered diluent alone and the amount of macrophage death in atherosclerotic plaques will be compared between the two groups. The amount of visfatin polypeptide, the length of administration and the frequency of administration are variables that can readily be determine by an individual skilled in the art.

[4] = tested on: atherosclerotic plaque formation; assay: Atherosclerotic plaque formation in susceptible mice on high cholesterol diet; assay type: in vivo; settings: vs diluent alone, mice with reduced ApoE1 expression
From the text: as §1, with “the incidence” for “the amount”, “of” for “of macrophage death in”, “atherosclerotic plaque formation” for “atherosclerotic plaques”

[5] = tested on: unfolded protein response (UPR); assay: Immunoblot of UPR markers in ER-stressed macrophages; assay type: cell-based; settings: for distal UPR effectors / distal UPR activation (CHOP, ATF3, XBP-1, ATF4): visfatin 24 h pre-incubation, then FC, 5 μM thapsigargin or 5 μg/ml tunicamycin 5 h, immunoblot
Description: FIG. 2. […] FIG. 2A. Macrophages were preincubated 1100 ng/ml visfatin (vis) for 24 h and then incubated with FC, 5 μM thapsigargin (TG), or 5 μg/ml tunicamycin (TN) for 5 h. Whole cell lysates were immunoblotted for CHOP, ATF3, and β-actin. FIG. 2B. Macrophages were pre-incubated ±100 ng/ml visfatin for 24 h and then incubated with 5 μg/ml TN for 5 h. The nuclear extracts were immunoblotted for XBP-1, ATF4, and nucleophosmin (loading control). FIG. 2C. Nuclei-free cell extracts from the above experiment were immunoblotted with antibodies against PERK, IRE1α, phospho-eIf2α, and β-actin.

ATF4 [6] = assay: ATF4 protein synthesis, [35S]methionine/cysteine pulse and immunoprecipitation; assay type: cell-based; settings: ±100 ng/ml visfatin 24 h, then 5 μg/ml tunicamycin 5 h, 15 min pulse
Description: (§2) FIG. 3. […] FIG. 3A. Macrophages were preincubated ±1100 ng/ml visfatin (v) for 24 h and then incubated with 50 μg/ml acetyl-LDL+10 μg/ml 58035 (FC) for indicated times. Total RNA was extracted and subjected to RT-QPCR. The mRNA level of ATF4 was normalized with a control gene 36B4. FIG. 3B. Macrophages were pre-incubated for 24 h±100 ng/ml visfatin (vis) and then incubated for 5 h+5 μg/ml tunicamycin (TN). The cells were pulsed with [35S]methionine/cysteine in methionine-free medium for 15 min and then lysed in RIPA buffer. ATF4 was immunoprecipitated using a rabbit antibody immobilized to protein A/G beads. A normal rabbit IgG served as control. The immunoprecipitate was subjected to SDS-PAGE and autoradiography.

macrophages = assay: ER stress-mediated macrophage apoptosis, Alexa-488 annexin V staining; assay type: cell-based; settings: pre-incubated with visfatin 24 h (FIG. 1A prints 1100 ng/ml, FIG. 1D ±100 ng/ml), then acetyl-LDL + 58035 (FC) 20 h or tunicamycin + fucoidan 24 h
Description: FIG. 1. […] FIG. 1A. Macrophages were pre-incubated 1100 ng/ml visfatin (vis) for 24 h and then incubated with 50 μg/ml acetyl-LDL+10 μg/ml 58035 (FC) for 20 h. Apoptosis was assayed by Alexa-488 annexin V staining (green). One representative image per condition was shown. FIG. 1B. The percentage of apoptosis was quantified (mean±SEM, n=8). FIG. 1C. Macrophages incubated in medium (con) or with visfatin (vis) for 24 h. Whole cell lysates were immunoblotted for the insulin receptor β (IRβ), SR-A, CD36 and β-actin. FIG. 1D. Macrophages were pre-incubated ±100 ng/ml visfatin (vis) for 24 h and then incubated with 5 μg/ml tunicamycin +25 μg/ml fucoidan (TN/F) for 24 h. Apoptosis was assayed and quantified as described in FIG. 1A and FIG. 1B.

ATF4 [7] = assay: ATF4 mRNA by RT-QPCR in FC-loaded macrophages; assay type: cell-based; settings: visfatin 24 h pre-incubation, then acetyl-LDL + 58035 (FC); normalized with 36B4
Description: as §2

B1: visfatin: adipokine protein, having a molecular weight of about 52,000 daltons; polypeptide having SEQ ID NO:1 (protein, listed as Homo sapiens)
chain: MNPAAEAEFNILLATDSYKVTHYKQYPPNTSKVYSYFECREKKTENSKLRKVKYEETVFYGLQYILNKYLKGKVVTKEKIQEAKDVYKEHFQDDVFNEKGWNYILEKYDGHLPIEIKAVPEGFVIPRGNVLFTVENTDPECYWLTNWIETILVQSWYPITVATNSREQKKILAKYLLETSGNLDGLEYKLHDFGYRGVSSQETAGIGASAHLVNFKGTDTVAGLALIKKYYGTKDPVPGYSVPAAEHSTITAWGKDHEKDAFEHIVTQFSSVPVSVVSDSYDIYNACEKIWGEDLRHLIVSRSTQAPLIIRPDSGNPLDTVLKVLEILGKKFPVTENSKGYKLLPPYLRVIQGDGVDINTLQEVCVLY
acute UPR induction in macrophages of the mouse peritoneal cavity ([1]; listed as Recombinant visfatin): suppresses the acute UPR induction of macrophages in mouse peritoneal cavity | acute UPR induction in macrophages of the mouse peritoneal cavity ([1]; listed as recombinant visfatin): suppress acute UPR induction in macrophages of the mouse peritoneal cavity | UPR-suppressing effect, dependence on the insulin receptor (insulin receptor): independent of the insulin receptor | incidence of the ER stress related disease [2]: lower incidence of the ER stress related disease | amount of macrophage death in atherosclerotic plaques [3]: lower amount of cell death | incidence of atherosclerotic plaque formation [4]: lower incidence of atherosclerotic plaque formation | distal UPR effectors / distal UPR activation (CHOP, ATF3, XBP-1, ATF4) [5]: directly targets distal UPR effectors | distal UPR effectors / distal UPR activation (CHOP, ATF3, XBP-1, ATF4) ([5]; listed as Visfatin): suppresses the distal UPR activation | upstream UPR activators (PERK, IRE1α, phospho-eIf2α) ([5]; ±100 ng/ml visfatin 24 h, then 5 μg/ml tunicamycin 5 h, nuclei-free cell extracts): without inhibiting upstream UPR activators | translation of ATF4 / ATF4 protein synthesis (ATF4 [6]): halted | translation of ATF4 / ATF4 protein synthesis (ATF4 [6]; listed as Visfatin): suppresses ATF4 protein synthesis | ER-stress mediated apoptosis of macrophages (macrophages): protects macrophages from ER-stress mediated apoptosis | ER-stress mediated apoptosis of macrophages (macrophages; listed as Visfatin): protects macrophages from ER stress-mediated apoptosis | mRNA level of ATF4 (ATF4 [7]): intact
